Where two headings read alike, the source gives them in different places.

In experiment [1] the target is alpha v integrins of OV10 cells (human (endogenous in OV10)). As to the kind of experiment: binding of protein-coated beads to adherent cells.
Experiment [2] shares this target. As to the kind of experiment: binding of protein-coated beads to adherent cells. The source holds these as a separate data set.

For the substance “Vitronectin (from UniProt P04004) (ligand)”, the attachment index (beads bound per 100 cells) (beads bound per 100 cells) in experiment [1] came out at 181; in experiment [2], 373.

For the origin of these results see publication PMC2120984.
